According to article PMC8720280:

Tests used:
Experiment in all cases: BLI
Tiga = target: Tiga
KMTR2 = target: KMTR2
Lexatumumab = conditions: Loading ID Biot-Lexa
AMG655 = conditions: fit R^2 0.9925
[1] = target: KYGQ:AAGA (45-48) Mut rDR5
[2] = target: SGE:AAA (135-137) NS Mut rDR5

WT DR5 recombinant protein (IgG4-Fc tagged extracellular domain of human DR5) (from UniProt O14763-1) K45A; Y46A; Q48A
koff (Tiga; fit R^2 0.9860): 0.000153 s⁻¹
kon (Tiga; fit R^2 0.9860): 1.72e+06 M⁻¹ s⁻¹
koff (KMTR2; fit R^2 0.9806): 1e-07 s⁻¹
kon (KMTR2; fit R^2 0.9806): 750000 M⁻¹ s⁻¹

WT DR5 recombinant protein (IgG4-Fc tagged extracellular domain of human DR5) (from UniProt O14763-1) C103_R104insA
Kd (Lexatumumab; fit R^2 0.8916): 0.266 nM
kon (Lexatumumab; fit R^2 0.8916): 2.14e+06 M⁻¹ s⁻¹

WT DR5 recombinant protein (IgG4-Fc tagged extracellular domain of human DR5) (from UniProt O14763-1) S135A; G136A; E137A
koff (Tiga; fit R^2 0.9793): 0.000625 s⁻¹
kon (Tiga; fit R^2 0.9793): 742000 M⁻¹ s⁻¹
koff (AMG655): 6.82e-05 s⁻¹
kon (AMG655): 539000 M⁻¹ s⁻¹
koff (KMTR2; fit R^2 0.9964): 2.01e-05 s⁻¹
kon (KMTR2; fit R^2 0.9964): 791000 M⁻¹ s⁻¹

Tigatuzumab
koff [1]: 0.000153 s⁻¹
koff [2]: 0.000625 s⁻¹

WT DR5 recombinant protein (IgG4-Fc tagged extracellular domain of human DR5) (from UniProt O14763-1) E98A; M99A
kon (Tiga; fit R^2 0.9770): 9.34e+06 M⁻¹ s⁻¹

WT DR5 recombinant protein (IgG4-Fc tagged extracellular domain of human DR5) (from UniProt O14763-1) C103_R104insS
Kd (Lexatumumab; fit R^2 0.8774): 0.215 nM
kon (Lexatumumab; fit R^2 0.8774): 1.5e+06 M⁻¹ s⁻¹
